According to US8247376B2, “NGAL for reduction and amelioration of ischemic and nephrotoxic injuries” (The Trustees of Columbia University, priority 2004, dated 2012):

Assay: NGAL trafficking after intraperitoneal or subcutaneous injection
Format: in vivo, mice
Excerpt: Recombinant human and mouse GST-NGAL were expressed in BL21 or XL1-Blue strains of E. coli (Stratagene) with additional ferric sulfate (50 Micro Molar, Sigma-Aldrich Co.). NGAL was isolated using Glutathione Sepharose 4B beads (Amersham Biosciences), eluted by thrombin cleavage (Sigma-Aldrich Co.; St. Louis, Mo.) and then further purified by gel filtration (Superdex75, SMART system, Amersham Biosciences) and examined by Coomassie gels (Biorad). BL-21 derived NGAL was loaded with iron free or iron saturated enterochelin, a siderophore (EMC Microcollections) using a 5 fold molar excess. Unbound siderophore (0.7 KD) was removed by washing (Microcon YM-10) with PBS. To produce ^55Fe or gallium (Ga) loaded NGAL we incubated the iron-free enterochelin NGAL complex with equimolar ^55Fe (18mCi) or Ga in NaCl (150 mM) Hepes (20 mM; pH 7.4) and the complex was washed 3 times (10K filter). Iodobeads (Pierce) were used to label NGAL with ^125I and unincorporated ^125I was removed by gel filtration (PD-10 column) followed by extensive dialysis (7 kDa cut off membrane, Pierce) against PBS. Alexa-568 and fluorescein isothiocyanate (Molecular Probes) was coupled to NGAL, according to the manufacturer, and then extensively dialyzed. Protein concentration was determined by Coomassie gels in comparison with bovine serum albumin standard.
To detect delivery of NGAL to the kidney rNGAL (10 or 100 μg), Alexa 568-NGAL (100 μg), ^125I-NGAL ([…], 2×10^6 cpm), or ^55Fe loaded enterochelin-NGAL (10 μg, 1×10^6 cpm) was injected into the peritoneum and blood, urine, kidney and liver samples were obtained. NGAL was detected by immunoblot. Alexa-568 NGAL was detected by confocal microscopy (LSM Meta Detector) and NGAL mediated iron trafficking was detected by scintillation counter and by light microscopic radioautography of Epon embedded kidneys. Slides were exposed to emulsion (Polyscience) for 1 week and then developed with Microdol and counterstained with Toluidine blue. To detect lysosomes in the proximal tubule, mice were injected with Fluorescein Dextran (46 kD; 0.5 mg; Sigma) 24 hours before Alexa 568 NGAL injections. LAMP1 (Santa Cruz) was detected in cryostat sections of 4% paraformaldehyde fixed kidneys.

B1: NGAL: Purified endotoxin-free recombinant NGAL expressed as GST fusion protein in bacteria, thrombin cleaved (protein, UniProt P80188 21-198, looked up)
Neutrophil …: QDSTSDLIPAPPLSKVPLQQNFQDNQFQGKWYVVGLAGNAILREDKDPQKMYATIYELKEDKSYNVTSVLFRKKKCDYWIRTFVPGCQPGEFTLGNIKSYPGLTSYLVRVVSTNYNQHAMVFFKKVSQNREYFKITLYGRTKELTSELKENFIRFSKSLGLPENHIVFPVPIDQCIDG
time to appearance of NGAL in the urine (injection of 100 μg exogenous NGAL): ≤ 10 min | injected NGAL recovered in the urine in the first hour (mouse, in vivo): 0.1-0.2%
